In PMC4646180:

Target: Ub-AMC (ubiquitin with 7-amino-4-methylcoumarin at its C terminus) (UniProt P0CG48)

| Substance | Relative activity of WT, 500 nM Ub-AMC [%] |
| --- | --- |
| MHV PLP2+ D1772R (from UniProt P0C6V0 1525-1911) (enzyme) | 1.1 |
| MHV PLP2+ D1807R (from UniProt P0C6V0 1525-1911) (enzyme) | 0.5 |
| MHV PLP2+ F1812A (from UniProt P0C6V0 1525-1911) (enzyme) | 3.3 |
| MHV PLP2+ Y1824A (from UniProt P0C6V0 1525-1911) (enzyme) | 3 |
| MHV PLP2+ Y1824F (from UniProt P0C6V0 1525-1911) (enzyme) | 70.3 |
